This note sets out measurements from US11298427B2, “Prodrugs comprising a pyroglutamate linker” (Ascendis Pharma A/S, priority 2015, dated 2022).

Like-named read-outs stand apart in the source and are kept apart here.

A word on the half-life: it is the time in which the quantity being followed falls by half.

A short description of this series: hydrolysis / release kinetics of linker-peptide conjugates in buffer at 37° C., LCMS analysis, half-life by curve fitting. The format is physicochemical. The method, then: The hydrolysis kinetics of PEGylated linker-peptide conjugate 8 were studied at pH 7.4, 37° C. and pH 8.9, 37° C. Therefore, the starting material 8 was dissolved in two different buffers (60 mM phosphate, pH 7.4 and 100 mM borate pH 8.9, respectively). The resulting solutions were incubated in a water bath at 37° C. At given points in time samples were withdrawn, quenched and analyzed by LCMS. Curve fitting software was applied to determine the corresponding half-life of the release.
Release kinetics were setup and analyzed according to example 5 with additional buffers at 37° C.
Release kinetics were setup and analyzed according to example 5 with changed buffers.

[1] abbreviates: sodium phosphate buffer, pH 7.4, 100 mM sodium phosphate, pH 7.4, 37° C., read-out: half-life (converted).

In the case of `COCCOCCOCCOCCOCCOCCOCCOCCNC(=O)[C@@H](N)CCC(=O)NCCCC[C@H](NC(=O)[C@H](CO)NC(C)=O)C(=O)N[C@@H](Cc1ccc(O)cc1)C(=O)O` [Compound 8], the half-life reads like this: (borate buffer, pH 8.9, 100 mM borate, pH 8.9, 37° C., read-out: half-life of release of Ac-Ser-Lys-Tyr-OH (9) (converted)) 220 days; (phosphate buffer, pH 7.4, 60 mM phosphate, pH 7.4, 37° C., read-out: half-life of release of Ac-Ser-Lys-Tyr-OH (9) (converted)) 56 days.
Consider `COCCOCCOCCOCCOCCOCCOCCOCCN(C)C(=O)[C@@H](N)CCC(=O)NCCCC[C@H](NC(=O)[C@H](CO)NC(C)=O)C(=O)N[C@@H](Cc1ccc(O)cc1)C(=O)O` [Compound 25a], for which the half-life under setting [1] was 26 days.
Consider `CN[C@@H](CCC(=O)NCCCC[C@H](NC(=O)[C@H](CO)NC(C)=O)C(=O)N[C@@H](Cc1ccc(O)cc1)C(=O)O)C(=O)NCCOCCOCCOCCOCCOCCOCCOCCOC` [Compound 25b], for which the half-life under setting [1] was 164 days.
For the compound `CN[C@@H](CCC(=O)NCCCC[C@H](NC(=O)[C@H](CO)NC(C)=O)C(=O)N[C@@H](Cc1ccc(O)cc1)C(=O)O)C(=O)N(C)CCOCCOCCOCCOCCOCCOCCOCCOC` [Compound 25c], the half-life was 149 days (HEPES buffer, pH 7.4, 60 mM HEPES, 130 mM NaCl, pH 7.4, 37° C., read-out: half-life (converted)); 92 days (sodium borate buffer, pH 9, 100 mM sodium borate, pH 9.0, 37° C., read-out: half-life (converted)); 129 days (sodium citrate buffer, pH 4, 100 mM sodium citrate, pH 4.0, 37° C., read-out: half-life (converted)); 207 days (sodium citrate buffer, pH 5.5, 100 mM sodium citrate, pH 5.5, 37° C., read-out: half-life (converted)); 339 days (sodium citrate buffer, pH 6.5, 30 mM sodium citrate, pH 6.5, 37° C., read-out: half-life (converted)); 336 days (sodium citrate buffer, pH 6.5, 100 mM sodium citrate, pH 6.5, 37° C., read-out: half-life (converted)). The half-life by setting is: (sodium phosphate buffer, pH 6.5, 100 mM sodium phosphate, pH 6.5, 37° C., read-out: half-life (converted)) 35 days; (sodium phosphate buffer, pH 7.4, 30 mM sodium phosphate, pH 7.4, 37° C., read-out: half-life (converted)) 55 days; (sodium phosphate buffer, pH 7.4, 60 mM sodium phosphate, pH 7.4, 37° C., read-out: half-life (converted)) 36 days; under setting [1], 55 days; (sodium phosphate buffer, pH 7.4, 200 mM sodium phosphate, pH 7.4, 37° C., read-out: half-life (converted)) 17 days.
